Where a chain is given by its changes, count along the chain named. Names may count otherwise. Each block holds one binder with its values, some of them ahead of it.
Columns and labels:
[1] = target: T1, human VEGF (hVEGF) (human, UniProt P15692 181-395); experiment: SPR
T1 construct: also called VEGF-A
T1 sequence: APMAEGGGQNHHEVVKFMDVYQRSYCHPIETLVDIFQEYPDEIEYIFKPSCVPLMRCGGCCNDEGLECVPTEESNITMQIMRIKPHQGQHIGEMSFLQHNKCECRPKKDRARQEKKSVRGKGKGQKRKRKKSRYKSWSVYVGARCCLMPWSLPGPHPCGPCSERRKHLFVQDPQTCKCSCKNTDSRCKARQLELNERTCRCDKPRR
From the text: (§1) To determine the binding affinity of selected Fab variants, SPR measurement with a BIACORE® T200 instrument was used. Briefly, series S sensor chip CM5 was activated with 1-ethyl-3-(3-dimethylaminopropyl) carbodiimide (EDC) and N-hydroxysuccinimide (NHS) reagents according to the supplier's instructions, and human VEGF (hVEGF) was coupled to achieve 50-80 response units (RU), then following by blocking un-reacted groups with 1M ethanolamine.
(§2) Three-fold serial dilutions of Fab in HBS-P buffer (0.01 M HEPES pH 7.4, 0.15 M NaCl, 0.005% surfactant P20) from low (0.02 nM) to high (50 nM) were injected (flow rate: 30 μl/min). The binding responses on hVEGF were corrected by subtracting of RU from a blank flow cell. The sensorgram was recorded and subject to reference and buffer subtraction before evaluating by BIACORE® T200 Evaluation Software (version 2.0). Association rates (kₒₙ) and dissociation rates (koff) were calculated using a simple one-to-one Langmuir binding model. The equilibrium dissociation constant (Kd) was calculated as the ratio koff/kₒₙ.

[2] = target: T1, human VEGF (hVEGF); experiment: SPR; remark: listed apart in the source
From the text: as §1, §2

[3] = target: T1, human VEGF (hVEGF); experiment: SPR; remark: listed apart in the source
From the text: as §1, §2

[4] = target: T1, human VEGF (hVEGF); experiment: SPR single-cycle
From the text: as §1, §2

[5] = target: T1, human VEGF (hVEGF); experiment: SPR multiple-cycle
From the text: as §1, §2

- Kd [1]: 272 pM
- koff [1]: 0.000804 s⁻¹
- kon [1]: 2.96e+06 M⁻¹ s⁻¹
B1: G6.31 HC-A40E, HC-T57E (Fab, V domains shown)
VH: EVQLVESGGGLVQPGGSLRLSCAASGFTISDYWIHWVRQEPGKGLEWVAGITPAGGYEYYADSVKGRFTISADTSKNTAYLQMNSLRAEDTAVYYCARFVFFLPYAMDYWGQGTLVTVSS
VL: DIQMTQSPSSLSASVGDRVTITCRASQDVSTAVAWYQQKPGKAPKLLIYSASFLYSGVPSRFSGSGSGTDFTLTISSLQPEDFATYYCQQGYGNPFTFGQGTKVEIK
notes: Fab

- Kd [2]: 169 pM
- koff [2]: 4.79e-05 s⁻¹
- kon [2]: 284000 M⁻¹ s⁻¹
- Kd [3]: 169 pM
- koff [3]: 4.79e-05 s⁻¹
- kon [3]: 284000 M⁻¹ s⁻¹
B2: R19HCLC4 (Fab, V domains shown)
VH: B1 VH with V2E, S7E, G16E, T28E, K43E, K65E, K76E, S85E, T114E
VL: B1 VL with R18E, F83A, N94A
notes: Fab

- Kd [2]: 442 pM
- koff [2]: 0.000607 s⁻¹
- kon [2]: 1.37e+06 M⁻¹ s⁻¹
- Kd [3]: 442 pM
- koff [3]: 0.000607 s⁻¹
- kon [3]: 1.37e+06 M⁻¹ s⁻¹
B3: HCLC1 (Fab, V domains shown)
VH: B1 VH with V2E, S7E, G16E, R19E, T28E, K43E, K65E, K76E, S85E, T114E
VL: B1 VL with S9E, R18E, F83A, N94A
notes: Fab

- Kd [2]: 299 pM
- koff [2]: 0.000608 s⁻¹
- kon [2]: 2.03e+06 M⁻¹ s⁻¹
- Kd [3]: 299 pM
- koff [3]: 0.000608 s⁻¹
- kon [3]: 2.03e+06 M⁻¹ s⁻¹
B4: HCLC4 (Fab, V domains shown)
VH: B1 VH with V2E, S7E, G16E, R19E, T28E, K43E, K65E, K76E, S85E, T114E
VL: B1 VL with R18E, F83A, N94A
notes: Fab

- Kd [2]: 293 pM
- koff [2]: 0.000623 s⁻¹
- kon [2]: 2.12e+06 M⁻¹ s⁻¹
- Kd [3]: 293 pM
- koff [3]: 0.000623 s⁻¹
- kon [3]: 2.12e+06 M⁻¹ s⁻¹
B5: HCLC2 (Fab, V domains shown)
VH: B1 VH with V2E, S7E, G16E, R19E, T28E, K43E, K65E, K76E, S85E, T114E
VL: B1 VL with R18E, K42E, S76E, F83A, N94A
notes: Fab

- Kd [2]: 316 pM
- koff [2]: 0.000573 s⁻¹
- kon [2]: 1.81e+06 M⁻¹ s⁻¹
- Kd [3]: 316 pM
- koff [3]: 0.000573 s⁻¹
- kon [3]: 1.81e+06 M⁻¹ s⁻¹
B6: HCLC5 (Fab, V domains shown)
VH: B1 VH with V2E, S7E, G16E, R19E, T28E, K43E, K65E, K76E, S85E, T114E
VL: B1 VL with F83A, N94A
notes: Fab

- Kd [2]: 62 pM
- koff [2]: 4.41e-05 s⁻¹
- kon [2]: 707000 M⁻¹ s⁻¹
- Kd [3]: 62.4 pM
- koff [3]: 4.41e-05 s⁻¹
- kon [3]: 707000 M⁻¹ s⁻¹
B7: R19HCLC5 (Fab, V domains shown)
VH: B1 VH with V2E, S7E, G16E, T28E, K43E, K65E, K76E, S85E, T114E
VL: B1 VL with F83A, N94A
notes: Fab

- Kd [2]: 330 pM
- koff [2]: 0.000608 s⁻¹
- kon [2]: 1.84e+06 M⁻¹ s⁻¹
- Kd [3]: 330 pM
- koff [3]: 0.000608 s⁻¹
- kon [3]: 1.84e+06 M⁻¹ s⁻¹
B8: HCLC3 (Fab, V domains shown)
VH: B1 VH with V2E, S7E, G16E, R19E, T28E, K43E, K65E, K76E, S85E, T114E
VL: B1 VL with S9E, R18E, K42E, F83A, N94A
notes: Fab

- koff [2]: 4.67e-05 s⁻¹
- kon [2]: 889000 M⁻¹ s⁻¹
- koff [3]: 4.67e-05 s⁻¹
- kon [3]: 889000 M⁻¹ s⁻¹
B9: R19HCLC2 (Fab, V domains shown)
VH: B1 VH with V2E, S7E, G16E, T28E, K43E, K65E, K76E, S85E, T114E
VL: B1 VL with R18E, K42E, S76E, F83A, N94A
notes: Fab

- Fold difference (relative to G6.31) [4]: 3.5 fold
- Kd [4]: 440 pM
- koff [4]: 0.000435 s⁻¹
- kon [4]: 991000 M⁻¹ s⁻¹
B10: G6.31 LC-Q89N (Fab, V domains shown)
VH: B1 VH with E40A, E58T
VL: B1 VL with Q89N
notes: Fab

- Kd [5]: 2090 pM
- koff [5]: 0.000407 s⁻¹
- kon [5]: 194000 M⁻¹ s⁻¹
B11: G6.31 LC-N94R (Fab, V domains shown)
VH: B1 VH with E40A, E58T
VL: B1 VL with N94R
notes: Fab
